Among the data in patent US20220144937A1 (JIANGSU HENGRUI MEDICINE, published 2022) are Kd and IC50 values, retold here.

The target in test [1] is T1, human IL-5 with his-tag (rhIL-5-his) (human, UniProt P05113 20-134).
T1 construct: It was expressed in HEK293 and purified from the supernatant; also called HuIL-5; recombinant human IL-5
T1 sequence: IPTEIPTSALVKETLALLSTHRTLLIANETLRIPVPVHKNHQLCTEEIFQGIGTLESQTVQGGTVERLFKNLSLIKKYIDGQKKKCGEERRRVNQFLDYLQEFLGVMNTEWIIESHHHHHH
The test is described as follows: Biacore. The procedure: (§1) The affinity of the murine IL-5 antibody to be tested with human IL-5 was measured by Biacore T200 (GE) instrument.
(§2) The protein A biosensor chip was used to affinity capture of the molecules to be tested, and then the antigen (recombinant human and cyno IL-5 prepared in Example 1) flowed through the surface of the chip, and the reaction signal was detected in real time with the Biacore T200 instrument to obtain the binding and dissociation curves. After the dissociation of each experimental cycle was completed, the biosensor chip was washed and regenerated with glycine-hydrochloric acid regeneration solution (pH 1.5). BIA evaluation version 4.1 GE software was used to fit the data against (1:1) Langmuir model, and the affinity value was obtained and shown in Table 13.

Test [2] deals with T1, human IL-5 with his-tag (rhIL-5-his). Kind of test: Biacore T200, antibody captured on protein A chip, antigen in flow, 1:1 Langmuir. As to the method:
as §1, §2

A further test addresses T2, cyno IL-5 with his-tag (cyno (paragraph 156 says rhesus), UniProt P48093 20-134 (rhesus entry)).
T2 construct: also called rhesus IL-5 with His-tag; monkey IL-5
T2 sequence: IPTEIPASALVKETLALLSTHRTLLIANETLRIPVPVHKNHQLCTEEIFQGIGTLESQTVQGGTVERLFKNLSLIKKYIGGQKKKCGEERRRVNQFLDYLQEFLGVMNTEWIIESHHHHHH
The test is described as above. As to the method: as §1, §2

For test [3], the target named is T1, human IL-5 with his-tag (rhIL-5-his). Kind of test: competition ELISA: IL-5 coated, biotin-IL-5Rα (10 µg/ml) as competitor, antibody diluted. As to the method:
To identify the ability of IL-5 antibody to block IL-5 from binding to the extracellular region of recombinantly expressed IL-5α receptor protein, IL-5 (5 μg/ml in PBS) was coated on an ELISA plate and incubated at 37° C. for 1 hour; the liquid was removed, 200 μl/well of 5% skimmed milk blocking solution diluted with PBS was added, and incubated for 2.5 hours in a 37° C. incubator for blocking. After blocking, the blocking solution was removed and the plate was washed with PBST buffer (pH 7.4 PBS comprising 0.05% Tween-20) for 5 times; 25 μl of 10 μg/ml IL-5Rα (in 1% BSA) labeled by a biotin labeling kit (Tojin Chemical, LK03) was added, and then 25 μl of gradient-diluted antibody was added (the antibody competed with IL-5Rα for the binding with IL-5) and incubated at 37° C. for 1 hour. After the incubation, the reaction solution in the microtiter plate was removed, the plate was washed for 5 times with PBST, added with 50 μl/well of Streptavidin-Peroxidase Polymer (Sigma, 52438-250UG) diluted with sample dilution solution at 1:600 and incubated for 1 hour at 37° C.

B1: mAb1706 (antibody, V domains shown)
VH: EVQLVESGGGLVQPGRSLKLSCAASGFTFSHYYMAWVRQAPKKGLEWVTSINYEGNSAYYGDSVKGRFTISRDNAKSTLYLQMDSLRSEDTATYYCATETLRESLDYWGQGVMVTVSS
VL: DIQMTQSPSSMSVSLGDRVTITCRASQDIGNYLSWYQQKLGKSPKLMIHSASNLEVGVPSRFSGSRSGSDYSLTINTLESEDPGIYFCLQHKQFPRTFGGGTKLELK
notes: Murine hybridoma antibody
Regarding B1, the Kd (as a rule, a measure of binding affinity in units of concentration) in test [1] turned out to be 0.0383 nM; in test [2], 0.0383 nM; in the test with cyno IL-5 with his-tag, 0.277 nM. The half-maximal inhibitory concentration (IC50) (as a rule, the concentration needed to halve the response being measured) in test [3] was 0.4 µg/mL.
